Article PMC10404669, “Vanillyl alcohol oxidase from Diplodia corticola: Residues Ala420 and Glu466 allow for efficient catalysis of syringyl derivatives” (The Journal of Biological Chemistry, 2023)

Legend:
[1] = substrate: C=CCc1ccc(O)c(OC)c1; assay: steady-state kinetics, purified enzyme, xylenol orange H2O2 assay (KM, Hill fit); type: biochemical, Diplodia corticola; conditions: FAD (covalently bound) catalytic center; pH 7.5; 25.0 °C
[2] = substrate: CCCCOCc1ccc(O)c(OC)c1; assay: Michaelis-Menten kinetics, purified enzyme, xylenol orange H2O2 assay (KM); type: biochemical, Diplodia corticola; conditions: FAD (covalently bound) catalytic center; pH 7.5; 25.0 °C
[3] = substrate: COc1cc(CO)ccc1O; assay: as above; type: biochemical, Diplodia corticola; conditions: FAD (covalently bound) catalytic center; pH 7.5; 25.0 °C
[4] = substrate: CCOCc1ccc(O)c(OC)c1; assay: as above; type: biochemical, Diplodia corticola; conditions: FAD (covalently bound) catalytic center; Ala420 and Glu466 near the substrate (docking); pH 7.5; 25.0 °C
[5] = substrate: COCc1ccc(O)c(OC)c1; assay: as above; type: biochemical, Diplodia corticola; conditions: FAD (covalently bound) catalytic center; pH 7.5; 25.0 °C
[6] = substrate: COc1cc(CO)ccc1O; assay: as above; type: biochemical, Penicillium simplicissimum; conditions: FAD (covalently bound) catalytic center; pH 7.5; 25.0 °C
[7] = substrate: CCOCc1ccc(O)c(OC)c1; assay: as above; type: biochemical, Penicillium simplicissimum; conditions: FAD (covalently bound) catalytic center; pH 7.5; 25.0 °C
[8] = substrate: COCc1ccc(O)c(OC)c1; assay: as above; type: biochemical, Penicillium simplicissimum; conditions: FAD (covalently bound) catalytic center; pH 7.5; 25.0 °C
[9] = substrate: C=CCc1ccc(O)c(OC)c1; assay: purified protein; type: biochemical, Penicillium simplicissimum; conditions: FAD (covalently bound) catalytic center; pH 7.5; 25.0 °C

B1: DcVAO (vanillyl alcohol oxidase) (Diplodia corticola) (protein)
chain: MSLSRPLALPPGVSESTFHQFIERITKTTPDVTIVESKDQFPDGGYHEPPSSHDPFYVQDKDHFIASAFVCPRSVDEVQDIVRAAGDFVIPLWPTSLGRNLGYGGAAPRVRGSVVLNLGKHMNRILEVNVEGAYALVEPGVTFEALHNYLVEHNLRDKLWLDVPDLGGGSVLGNTLERGVGYTPYGDHFMMHSGMEVVLANGELLRTGMGALPAPKSETEGVTKLHEEPGNKCWQLFPYGFGPYNDGLFSQSNLGIVTKLGLGLMPNPGGYQSYLITIPGEEDLHKAVEIIRPLRLNNVIQNVPTLRYVLLDAGMMGHKSDYTSSTSPIDEATTDAIAKKLNLGRWNFYGALYGPPEIRTAMWKLIHAAFSAIPGARFFFPDDVADPRAVLHNRHNVLQGIPSYEELRWVDWVPNGAHVAFSPISRISGADAARQVDLAKRRCRDAGFDYMGTFTVGMREMHHIVEIVFDRTDAGQRKRAEALVRGLVDECAALGWGEYRTHLAFMDQIAGTYGWGGGALGRFNERVKEALDPKGILAPGKSGVWGSRFGELKGKL
For B1, the Km [1] was 60 ± 3 µM, the kcat [1] was 10.3 ± 0.1 s⁻¹ and the Km [2] was 258 ± 27 µM. The kcat [2] was 2.1 ± 0.1 s⁻¹, the Km [3] was 297 ± 21 µM and the kcat [3] was 4 ± 0.1 s⁻¹. It also gave a Km [4] of 198 ± 19 µM, a kcat [4] of 4.7 ± 0.2 s⁻¹ and a Km [5] of 263 ± 12 µM. It also gave a kcat [5] of 1.9 ± 0.01 s⁻¹.

B2: PsVAO (vanillyl alcohol oxidase) (Penicillium simplicissimum) (protein)
chain: MSKTQEFRPLTLPPKLSLSDFNEFIQDIIRIVGSENVEVISSKDQIVDGSYMKPTHTHDPHHVMDQDYFLASAIVAPRNVADVQSIVGLANKFSFPLWPISIGRNSGYGGAAPRVSGSVVLDMGKNMNRVLEVNVEGAYCVVEPGVTYHDLHNYLEANNLRDKLWLDVPDLGGGSVLGNAVERGVGYTPYGDHWMMHSGMEVVLANGELLRTGMGALPDPKRPETMGLKPEDQPWSKIAHLFPYGFGPYIDGLFSQSNMGIVTKIGIWLMPNPRGYQSYLITLPKDGDLKQAVDIIRPLRLGMALQNVPTIRHILLDAAVLGDKRSYSSRTEPLSDEELDKIAKQLNLGRWNFYGALYGPEPIRRVLWETIKDAFSAIPGVKFYFPEDTPENSVLRVRDKTMQGIPTYDELKWIDWLPNGAHLFFSPIAKVSGEDAMMQYAVTKKRCQEAGLDFIGTFTVGMREMHHIVCIVFNKKDLIQKRKVQWLMRTLIDDCAANGWGEYRTHLAFMDQIMETYNWNNSSFLRFNEVLKNAVDPNGIIAPGKSGVWPSQYSHVTWKL
With B2 the Km [6] was 144 ± 10 µM, the kcat [6] was 6.7 ± 0.1 s⁻¹ and the Km [7] was 86 ± 3 µM. It also gave a kcat [7] of 2.6 ± 0.02 s⁻¹, a Km [8] of 155 ± 5 µM and a kcat [8] of 7.9 ± 0.1 s⁻¹. It also gave a Km [9] of 67 ± 2 µM and a kcat [9] of 18.7 ± 0.5 s⁻¹.
